# Data as given in paper PMC7012691.
# Substrate: O=[N+]([O-])c1ccc(O[C@H]2O[C@H](CO)[C@@H](O)[C@H](O)[C@@H]2O)cc1
# Assay: purified protein
# Assay type: biochemical, Enterococcus faecalis
# Conditions: apparent, MES 100 mM, pH 6.0, CaCl2 4 mM, 37 °C, 10 min
protein,measurement,value
EfMan-I (Enterococcus faecalis V583) (protein) MNIQAIDTRHGTANQHSFSNGNCLPYTGVPFGMNFYAPQTTDQKGSWWFHPEDRTFQGYRVTHQPSPWMGDFSHLLMTPVSGSLSELSLFHAQSSYRPEESLFSPVEINLTQLRYQITSQLIPSMYGGILTIDYQQKDNHLLLTLPGRYQVKQLDDHQVAVKVINYSGCEDPDFSFYFVLHFEQPLTKWFAPSSGEDGKILLSFGNIAQQVVHFSSSFISEKQAQLNLAREISLRSTEMLQQGIADWHNYFDRLKVTHENPEHTKTFYHTLYRTFLFPQTFYELDENQQPIHYDTFSQTVRPGVLYTNNGFWDTYKTVYPLFSLIAQEKYEEMLEGFLNSYNETGFLPKWLSPDERGLMPGTLIDAVIADAAVKKIRPDLMPQFLEAMKKGATQQSERENYGRQGTLDYLKYGYVPSTYHESVNHTLDYAYSDFCISQVAKTLNDSETATFYRQQALNYQQLFNPETGFMQAKDTEGNFRPDFLDIRWGKDYAEGSAWQSSFAVYQDFAGLIKLYGSELAFEKKLIQLCNQAPNFNVEGYGFEIHEMSEMAAIDFGQLAISNQPSFHYPFLFSYIGKPEMAQPLLKQLMQTFDASPTGYPGDEDNGSMSAWYIFNSLGFYPVTPGTGEYVIGMPLVQTAEVKLSNGKQLTIQTSPNKVQQQFIHEIQLNQEKHTAPYFTHQELLNGGTLDYQLGIVPNPQNTAERPFSLSTEK,Km,11 ± 1.7 mM
same,kcat,0.49 ± 0.03 s⁻¹
same,kcat/Km,47 M⁻¹ s⁻¹
